Starred links: 1 amine or outer side, 2 acyl side, 3 side chain; linkers in the order of their positions; H or OH if unused. Non-standard residues stand in square brackets, D forms with d. Residues, ends and D or L forms follow the SMILES beside them. Primed or numbered codes have the meaning given here. No end group written: not given here. *: point of attachment. GlyA = glycolic acid (-OCH2CO2H), esterified to the C-terminal carboxyl, O=C(O)CO*; GlyA″ = glycolic acid, ester to the C-terminal carboxyl, -OCH2CO2H, O=C(O)CO*; LacA″ = lactic acid residue, ester -OCH(CH3)CO2H at the C-terminus; Cys(S-allyl) = S-allylcysteine, C=CCSC[C@H](N[*:1])C(=O)[*:2]; Cys(S-Me) = S-methylcysteine, CSC[C@H](N[*:1])C(=O)[*:2]; γGlu = O=C(O)[C@H](CCC(=O)[*:2])N[*:1]; Tle = CC(C)(C)[C@H](N)C(=O)O; Orn = NCCC[C@H](N)C(=O)O; Abu = CC[C@H](N)C(=O)O; LacA = lactic acid
T1: human calcium receptor (Homo sapiens, UniProt P41180)
T1 construct: expressed in transfected cells; host or cells: Xenopus laevis oocytes injected with cRNA
T1 sequence (P41180 20-1078): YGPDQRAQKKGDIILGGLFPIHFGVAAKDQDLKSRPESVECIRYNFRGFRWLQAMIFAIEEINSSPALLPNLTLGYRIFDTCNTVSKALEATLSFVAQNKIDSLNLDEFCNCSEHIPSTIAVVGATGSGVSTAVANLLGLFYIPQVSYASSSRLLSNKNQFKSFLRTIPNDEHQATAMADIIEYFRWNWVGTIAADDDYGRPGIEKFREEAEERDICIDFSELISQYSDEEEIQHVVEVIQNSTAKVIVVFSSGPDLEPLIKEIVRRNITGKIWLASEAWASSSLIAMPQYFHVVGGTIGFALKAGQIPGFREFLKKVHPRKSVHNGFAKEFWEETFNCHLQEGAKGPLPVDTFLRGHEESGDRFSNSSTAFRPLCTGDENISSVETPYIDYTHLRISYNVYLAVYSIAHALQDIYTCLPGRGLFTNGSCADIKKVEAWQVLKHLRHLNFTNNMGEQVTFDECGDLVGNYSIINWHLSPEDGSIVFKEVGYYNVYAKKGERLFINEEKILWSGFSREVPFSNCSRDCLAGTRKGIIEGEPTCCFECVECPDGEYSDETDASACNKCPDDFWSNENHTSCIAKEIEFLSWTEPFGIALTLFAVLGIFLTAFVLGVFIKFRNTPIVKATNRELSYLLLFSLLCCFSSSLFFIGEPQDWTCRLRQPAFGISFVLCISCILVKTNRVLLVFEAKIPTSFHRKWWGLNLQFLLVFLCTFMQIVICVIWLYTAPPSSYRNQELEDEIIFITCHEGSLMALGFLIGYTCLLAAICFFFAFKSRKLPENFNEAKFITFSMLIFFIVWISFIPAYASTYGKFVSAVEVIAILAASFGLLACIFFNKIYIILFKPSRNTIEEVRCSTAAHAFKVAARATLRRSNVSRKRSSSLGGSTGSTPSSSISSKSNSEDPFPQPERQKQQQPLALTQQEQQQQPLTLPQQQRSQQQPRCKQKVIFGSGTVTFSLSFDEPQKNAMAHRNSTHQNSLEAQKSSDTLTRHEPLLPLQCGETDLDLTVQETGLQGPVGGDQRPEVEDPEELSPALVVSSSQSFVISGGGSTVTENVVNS

T2: human calcium receptor (human, UniProt P41180 20-1078)
T2 sequence (looked up): T1 sequence (P41180 20-1078)


Tests used:
human calcium receptor [1] = biological target: T1, human calcium receptor; test: Ca ion concentration-dependent Cl ionic current measurement in Xenopus laevis oocytes expressing the calcium receptor; type: cell-based; conditions: for Activity (lowest concentration at which current was detected): peptide added at 1,000, 300, 100, 30, 10, 3, 1, 0.3 and 0.1 μM
Method: For evaluation of the calcium receptor-activating action, a Ca ion concentration-dependent Cl ionic current measuring method using a Xenopus laevis oocyte expression system was used. If each activator is added to Xenopus laevis oocytes expressing the calcium receptor, intracellular Ca ions increase. Then, the Ca ion concentration-dependent Cl channel opens, and the intracellular current value changes as an ionic current. By measuring the change in the intracellular current value, whether the calcium receptor-activating action is present or not can be determined.
Specifically, the abdomen of Xenopus laevis was opened, and an egg batch was taken out and then treated with a 1% collagenase solution at 20° C. for 2 hours to obtain individual oocytes. Into the oocytes, 50 nl of 1 μg/μl receptor cRNA or 50 nl of sterilized water per oocyte were injected by using a micro glass capillary, and the oocytes were cultured at 18° C. for 2 to 3 days. For the culture, a solution obtained by adding 2 mM pyruvic acid, 10 U/ml penicillin, and 10 μg/ml streptomycin to the solution in Example 2 was used. After the culture, a test solution was added to the oocytes injected with cRNA or sterilized water. Electrophysiological measurement was performed by using an amplifier Geneclamp 500 (manufactured by Axon) and recording software AxoScope 9.0 (manufactured by Axon). The oocytes were membrane potential-clamped at −70 mV by the double electrode potential clamp method, and the intracellular current was measured via the Ca ion concentration-dependent Cl ion channel. The maximum value of the intracellular current was defined as the response current value. […]
The calcium receptor-activating action of L-amino acids was evaluated by using the method described in Example 13. That is, oocytes injected with cRNA of the calcium receptor or sterilized water were prepared, and membrane potential-clamped at −70 mV by the double electrode potential clamp method. To the potential-clamped oocytes, alanine (10 mM), arginine (10 mM), asparagine (10 mM), aspartic acid (10 mM), cysteine (10 mM), glutamine (10 mM), glutamic acid (10 mM), glycine (10 mM), histidine (10 mM), isoleucine (10 mM), leucine (10 mM), lysine (10 mM), methionine (10 mM), phenylalanine (10 mM), proline (10 mM), serine (10 mM), threonine (10 mM), tryptophan (10 mM), tyrosine (10 mM), valine (10 mM), ornithine (10 mM), taurine (10 mM), or hydroxyproline (10 mM) was added, and Ca ion concentration-dependent Cl response current was measured. […] As for the above-described amino acids, the activating action is reported in Proc. Natl. Acad. Sci. USA, Apr. 25, 2000, 97(9): 4814-9.
The calcium receptor-activating action of D-cysteine was evaluated by using the method described in Example 13. That is, oocytes injected with cRNA of the calcium receptor or sterilized water were prepared, and membrane potential-clamped at −70 mV by the double electrode potential clamp method. To the potential-clamped oocytes, D-cysteine (10 mM), L-cysteine (10 mM), D-tryptophan (10 mM), or L-tryptophan (10 mM) was added, and Ca ion concentration-dependent Cl response current was measured.
The calcium receptor-activating action of a peptide was evaluated by using the method described in Example 13. That is, oocytes injected with cRNA of the calcium receptor or sterilized water were prepared, and membrane potential-clamped at −70 mV by the double electrode potential clamp method.

rat large intestine loop = test: Fluid absorption in rat large intestine loop method (PGE2-stimulated); type: in vivo, rats; conditions: injected into loop 30 minutes after PGE2 i.p.; measured after 1 hour
Method: The cecum and large intestine were extirpated from the abdomen of each of male SD (IGS) rats under pentobarbital anesthesia, and the site 5 cm away from the area just under the cecum was ligated to form a large intestine loop Immediately after the loop had been formed, PGE2 (4 μg/ml/kg, SIGMA) was intraperitoneally administered, and after 30 minutes, a medicament, which had been dissolved in 2 ml of Tyrode's solution (NaCl: 136.9 mM, KCl: 2.7 mM, CaCl2.2H2O: 1.8 mM, MgCl2.6H2O: 1.04 mM, NaH2PO4.2H2O: 0.04 mM, NaH2PO4.2H2O: 0.04 mM, glucose: 5.55 mM, NaHCO3: 11.9 mM), was injected into the prepared loop (the medicament solution was adjusted so that the pH would be 6.5 to 7.5). As a control, Tyrode's solution free of any medicament (vehicle) was administered. After 1 hour, the loop weight, the loop weight after solution removal, and the loop area were measured to calculate a solution weight per unit area remaining in the loop.
The remaining solution amount per unit area was calculated with the following equation:
Remaining solution amount per unit area(g/cm^2)=(Loop weight−Loop weight after solution removal)/Loop area.
The fluid absorption was evaluated by calculating an inhibitory rate from the following equation:
Inhibitory rate(%)=100−(Remaining solution amount per unit area under drug administration−Remaining solution amount per unit area in base(average))/(Remaining solution amount per unit area under vehicle administration(average)−Remaining solution amount per unit area in base(average))×100.
(Base=case where no stimulation is given (no treatment with PGE2))

human calcium receptor [2] = biological target: T2, human calcium receptor; test: cell-based or functional assay
[3] = L-amino acid added at 10 mM, oocytes clamped at -70 mV

Row | Molecule | Activity (lowest concentration at which current was detected) (human calcium receptor [1]) | other results
1 | N[C@H](CS)C(=O)O [D-cysteine, reference compound] | – | calcium receptor-activating action (Ca ion concentration-dependent Cl response current) (human calcium receptor [1]; D-amino acid added at 10 mM, oocytes clamped at -70 mV): definite calcium receptor-activating action
2 | N[C@@H](CS)C(=O)O [cysteine, reference compound] | – | calcium receptor-activating action (Ca ion concentration-dependent Cl response current) (human calcium receptor [1]; [3]): definite calcium receptor-activating action
3 | N[C@@H](Cc1c[nH]cn1)C(=O)O [histidine, reference compound] | – | calcium receptor-activating action (Ca ion concentration-dependent Cl response current) (human calcium receptor [1]; [3]): definite calcium receptor-activating action
4 | N[C@@H](Cc1ccccc1)C(=O)O [phenylalanine, reference compound] | – | calcium receptor-activating action (Ca ion concentration-dependent Cl response current) (human calcium receptor [1]; [3]): definite calcium receptor-activating action
5 | N[C@@H](Cc1c[nH]c2ccccc12)C(=O)O [tryptophan, reference compound] | – | calcium receptor-activating action (Ca ion concentration-dependent Cl response current) (human calcium receptor [1]; [3]): definite calcium receptor-activating action
6 | N[C@@H](Cc1ccc(O)cc1)C(=O)O [tyrosine, reference compound] | – | calcium receptor-activating action (Ca ion concentration-dependent Cl response current) (human calcium receptor [1]; [3]): definite calcium receptor-activating action
7 | N[C@@H](CCC(=O)N[C@@H](CSN=O)C(=O)NCC(=O)O)C(=O)O [γ-Glu-Cys(SNO)-Gly] | – | calcium receptor-activating action (Ca ion concentration-dependent Cl response current) (human calcium receptor [1]; peptide added at 50 μM): definite calcium receptor-activating action
8 | CC(C)(C)[C@H](NC(=O)CC[C@H](N)C(=O)O)C(=O)NCC(=O)O [γ-Glu-t-Leu-Gly] (γGlu-[Tle]-Gly-OH) | – | fluid absorption (inhibitory rate from remaining solution amount per unit area) (rat large intestine loop): promoted fluid absorption
9 | γ-Glu-Abu-Gly ([γGlu]-[Abu]-Gly) | 3 µM | –
10 | γ-Glu-Cys(S-Me)-Gly ([γGlu]-[Cys(S-Me)]-Gly) | 3 µM | –
11 | γ-Glu-Cys(S-allyl)-Gly ([γGlu]-[Cys(S-allyl)]-Gly) | 100 µM | –
12 | γ-Glu-Gly-Gly ([γGlu]-Gly-Gly) | 30 µM | –
13 | γ-Glu-Orn ([γGlu]-[Orn]) | – | calcium receptor-activating action (Ca ion concentration-dependent Cl response current) (human calcium receptor [1]; peptide added at 500 μM): definite calcium receptor-activating action
14 | γ-Glu-Ser-Gly ([γGlu]-Ser-Gly) | 30 µM | –
15 | γ-Glu-Tau ([γGlu]-[Tau]) | 300 µM | –
16 | γ-Glu-Val-Arg ([γGlu]-Val-Arg) | 1,000 μM | –
17 | γ-Glu-Val-Asn ([γGlu]-Val-Asn) | 30 µM | –
18 | γ-Glu-Val-Asp | 1,000 μM | –
19 | γ-Glu-Val-Cys ([γGlu]-Val-Cys) | 10 µM | –

Row | Molecule | Activity (lowest concentration at which current was detected) (human calcium receptor [1]) | other results
20 | γ-Glu-Val-Gln ([γGlu]-Val-Gln) | 10 µM | –
21 | γ-Glu-Val-Glu ([γGlu]-Val-Glu) | 1,000 μM | –
22 | γ-Glu-Val-His ([γGlu]-Val-His) | 100 µM | –
23 | γ-Glu-Val-Lys ([γGlu]-Val-Lys) | 1,000 μM | –
24 | γ-Glu-Val-Met ([γGlu]-Val-Met) | 1,000 μM | –
25 | γ-Glu-Val-Orn ([γGlu]-Val-[Orn]) | 100 µM | –
26 | γ-Glu-Val-Phe ([γGlu]-Val-Phe) | 30 µM | –
27 | γ-Glu-Val-Pro ([γGlu]-Val-Pro) | 30 µM | –
28 | γ-Glu-Val-Ser ([γGlu]-Val-Ser) | 30 µM | –
29 | γ-Glu-Val-Thr ([γGlu]-Val-Thr) | 1,000 μM | –
30 | γ-Glu-Val-Val ([γGlu]-Val-Val) | 1,000 μM | –
31 | γ-Glu-t-Leu ([γGlu]-[Tle]) | 100 µM | –
32 | γ-Glu-γ-Glu-Val ([γGlu]-[γGlu]-Val) | 1,000 μM | –
33 | [γGlu]-[Abu]-{LacA″} [γ-Glu-Abu-LacA] | – | EC50, calcium imaging (Calcium 3 assay kit, FLEXSTATION) in HEK 293 cells expressing human CaSR (human calcium receptor [2]): 102 nM
34 | [γGlu]-[Tle]-{LacA″} [γ-Glu-t-Leu-LacA] | – | EC50, calcium imaging (Calcium 3 assay kit, FLEXSTATION) in HEK 293 cells expressing human CaSR (human calcium receptor [2]): 38 nM
35 | [γGlu]-Val-LacA [γ-Glu-Val-LacA] | – | EC50, calcium imaging (Calcium 3 assay kit, FLEXSTATION) in HEK 293 cells expressing human CaSR (human calcium receptor [2]): 57 nM
36 | [γGlu]-Val-GlyA [γ-Glu-Val-GlyA] | – | EC50, calcium imaging (Calcium 3 assay kit, FLEXSTATION) in HEK 293 cells expressing human CaSR (human calcium receptor [2]): 140 nM
37 | [γGlu]-[Tle]-{GlyA″} [γ-Glu-t-Leu-GlyA] | – | EC50, calcium imaging (Calcium 3 assay kit, FLEXSTATION) in HEK 293 cells expressing human CaSR (human calcium receptor [2]): 50 nM

Reference: patent US20100105864A1, “PROPHYLACTIC OR THERAPEUTIC AGENT FOR DIARRHEA” (priority 2007, published 2010)
